Data set [1] deals with the molecule itself. The experiment in a line: dimerization assay (cross-linking, immunoprecipitation) after OSM stimulation. Here is the method:
Dimerization assay: Dimerization assay was performed as mentioned previously (Bublil et al., 2010; Turk and Chapkin, 2015) with some modifications. […] The […] were incubated with non-permeable cross-linking reagent, 3 mM bis (sulphosuccinimidyl) suberate [BS3 (Pierce)], cross-linking reagent on ice for 30 min and subsequently quenched with 250 mM Glycine. The cells were washed with ice cold PBS and cells were lysed using RIPA buffer as mentioned earlier.

The target in data set [2] is T1, cell surface human OSMR protein (as used in the ELISA for EC50) (human, UniProt Q99650 28-739, limits assumed).
T1 sequence (looked up): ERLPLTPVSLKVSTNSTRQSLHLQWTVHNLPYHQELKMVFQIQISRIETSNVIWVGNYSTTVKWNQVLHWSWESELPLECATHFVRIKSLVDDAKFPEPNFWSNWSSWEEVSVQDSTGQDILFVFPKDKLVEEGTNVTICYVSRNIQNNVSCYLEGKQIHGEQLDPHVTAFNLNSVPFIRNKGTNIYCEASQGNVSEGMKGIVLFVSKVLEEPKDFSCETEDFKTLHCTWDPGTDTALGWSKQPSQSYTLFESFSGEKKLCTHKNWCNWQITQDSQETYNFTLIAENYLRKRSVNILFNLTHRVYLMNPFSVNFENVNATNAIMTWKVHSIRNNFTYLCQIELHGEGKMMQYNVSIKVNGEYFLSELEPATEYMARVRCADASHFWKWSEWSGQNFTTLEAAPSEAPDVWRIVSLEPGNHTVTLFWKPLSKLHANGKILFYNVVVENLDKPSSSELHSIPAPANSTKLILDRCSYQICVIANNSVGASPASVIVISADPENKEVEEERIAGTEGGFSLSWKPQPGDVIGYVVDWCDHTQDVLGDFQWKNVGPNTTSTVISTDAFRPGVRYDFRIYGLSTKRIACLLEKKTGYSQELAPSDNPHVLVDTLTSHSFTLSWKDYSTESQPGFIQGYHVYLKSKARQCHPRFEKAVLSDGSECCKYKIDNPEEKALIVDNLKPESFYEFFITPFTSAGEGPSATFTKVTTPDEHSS
Briefly: ELISA. (An ELISA detects its analyte on a solid surface through an enzyme-linked reagent.)

Data set [3] has as its target T2, recombinant OSMR protein (Sino Biologicals, 11226-H08H), extracellular domain of OSMR (UniProt Q99650 28-740).
T2 construct: extracellular domain; also called OSMR antigen
T2 sequence (looked up): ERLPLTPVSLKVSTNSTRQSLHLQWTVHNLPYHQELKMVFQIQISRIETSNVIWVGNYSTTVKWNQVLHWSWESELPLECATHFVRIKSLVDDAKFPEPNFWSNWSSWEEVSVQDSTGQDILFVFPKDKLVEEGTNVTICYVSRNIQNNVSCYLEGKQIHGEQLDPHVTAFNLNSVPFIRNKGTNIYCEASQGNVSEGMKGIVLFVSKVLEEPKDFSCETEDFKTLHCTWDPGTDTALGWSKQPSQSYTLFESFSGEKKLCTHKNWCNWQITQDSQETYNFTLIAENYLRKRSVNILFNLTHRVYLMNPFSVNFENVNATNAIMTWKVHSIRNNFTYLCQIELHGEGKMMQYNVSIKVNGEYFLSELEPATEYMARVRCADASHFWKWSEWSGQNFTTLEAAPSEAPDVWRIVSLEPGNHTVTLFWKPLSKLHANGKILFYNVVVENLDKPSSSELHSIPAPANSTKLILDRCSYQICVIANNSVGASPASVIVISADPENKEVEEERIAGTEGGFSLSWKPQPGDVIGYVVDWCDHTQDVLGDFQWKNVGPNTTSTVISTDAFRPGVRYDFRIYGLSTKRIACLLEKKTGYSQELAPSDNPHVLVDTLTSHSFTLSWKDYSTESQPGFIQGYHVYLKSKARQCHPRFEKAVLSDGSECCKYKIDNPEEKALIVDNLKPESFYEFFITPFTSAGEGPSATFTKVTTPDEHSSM
Briefly: screening of full-length IgG1 clones on recombinant OSMR extracellular domain.

B1: OSMR on human ovarian cancer cells (HEYA8, OVCAR4, A2780) (receptor, UniProt Q99650 28-979, looked up)
chain: ERLPLTPVSLKVSTNSTRQSLHLQWTVHNLPYHQELKMVFQIQISRIETSNVIWVGNYSTTVKWNQVLHWSWESELPLECATHFVRIKSLVDDAKFPEPNFWSNWSSWEEVSVQDSTGQDILFVFPKDKLVEEGTNVTICYVSRNIQNNVSCYLEGKQIHGEQLDPHVTAFNLNSVPFIRNKGTNIYCEASQGNVSEGMKGIVLFVSKVLEEPKDFSCETEDFKTLHCTWDPGTDTALGWSKQPSQSYTLFESFSGEKKLCTHKNWCNWQITQDSQETYNFTLIAENYLRKRSVNILFNLTHRVYLMNPFSVNFENVNATNAIMTWKVHSIRNNFTYLCQIELHGEGKMMQYNVSIKVNGEYFLSELEPATEYMARVRCADASHFWKWSEWSGQNFTTLEAAPSEAPDVWRIVSLEPGNHTVTLFWKPLSKLHANGKILFYNVVVENLDKPSSSELHSIPAPANSTKLILDRCSYQICVIANNSVGASPASVIVISADPENKEVEEERIAGTEGGFSLSWKPQPGDVIGYVVDWCDHTQDVLGDFQWKNVGPNTTSTVISTDAFRPGVRYDFRIYGLSTKRIACLLEKKTGYSQELAPSDNPHVLVDTLTSHSFTLSWKDYSTESQPGFIQGYHVYLKSKARQCHPRFEKAVLSDGSECCKYKIDNPEEKALIVDNLKPESFYEFFITPFTSAGEGPSATFTKVTTPDEHSSMLIHILLPMVFCVLLIMVMCYLKSQWIKETCYPDIPDPYKSSILSLIKFKENPHLIIMNVSDCIPDAIEVVSKPEGTKIQFLGTRKSLTETELTKPNYLYLLPTEKNHSGPGPCICFENLTYNQAASDSGSCGHVPVSPKAPSMLGLMTSPENVLKALEKNYMNSLGEIPAGETSLNYVSQLASPMFGDKDSLPTNPVEAPHCSEYKMQMAVSLRLALPPPTENSSLSSITLLDPGEHYC
notes: whole, on cells; also called Oncostatin M receptor; OMSR receptors
As for B1, the binding result in data set [1] is recorded as “binds”.

B2: B18 monoclonal antibody (antibody, V domains shown)
VH: not shown
VL: DVVMTQSPLSLPVTPGEPASISCRSSQSLLHSNGYNYLDWYMQKPGQSPQVLIYLGSNRASGVPDRFSGSGSGTDFTLKISRVEAEDVGVYYCMQALQTPHTFGQGTTVDIK
notes: also called B18 mAb; B18 antibody clones
For the molecule B2, the figures for the binding result in data set [2] and in data set [3] were “no binding” and “binds”, respectively.

B3: B07 monoclonal antibody (antibody, V domains shown)
VH: QVQLVESGGGVVRPGGSLRLSCAASGFTFDDYGMSWVRQAPGKGLEWVSGINWNGGSTGYADSVKGRFTISRDNAKNSLYLQMNSLRAEDTALYHCARVNYDSSGLRGAFDIWGQGTMVTVSS
VL: NIQMTQSPSSLSASVGDRVTITCQASQYISNSLNWYQQKPGKAPNLLLYDATNLEPGVPSRFSGSGSRTDFTLTISSLQPEDIATYYCQQYHNLPPTFGQGTRLEIK
notes: also called B07 mAb
On to B3, for which, in data set [3], the binding result was “binds”.

(Values after patent US20250197513A1 (University of Texas, published 2025).)
